Values of other authors, collected in PMC4465046.

Biological target: HIV-1 protease (Human immunodeficiency virus 1) (UniProt O93215)

## HIV-1 protease (from UniProt O93215)
  Kd: 6.8 nM
